Measurements reported in patent US20130336951A1 (CENTRE FOR ADDICTION AND MENTAL HEALTH, published 2013).

B1: Glyceraldehyde 3-phosphate-dehydrogenase (GAPDH), endogenous protein of rat hippocampus (enzyme)
chain: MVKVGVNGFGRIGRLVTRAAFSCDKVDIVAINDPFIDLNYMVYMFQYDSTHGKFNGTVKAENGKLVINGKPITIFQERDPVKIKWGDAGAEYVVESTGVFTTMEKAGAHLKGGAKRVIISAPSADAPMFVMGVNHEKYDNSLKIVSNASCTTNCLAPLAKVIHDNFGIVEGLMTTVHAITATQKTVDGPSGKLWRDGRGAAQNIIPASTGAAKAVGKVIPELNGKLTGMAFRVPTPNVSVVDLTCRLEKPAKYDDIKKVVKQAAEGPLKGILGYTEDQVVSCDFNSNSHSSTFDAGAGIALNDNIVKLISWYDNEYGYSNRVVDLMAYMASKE
notes: Native protein in rat hippocampal extracts, primary rat hippocampal neurons and rat brain
B6: GST-GluR2 NTb (K272-I421) (other, UniProt P19491 272-421, looked up)
chain: KFIERWSTLEEKEYPGAHTATIKYTSALTYDAVQVMTEAFRNLRKQRIEISRRGNAGDCLANPAVPWGQGVEIERALKQVQVEGLSGNIKFDQNGKRINYTINIMELKTNGPRKIGYWSEVDKMVVTLTELPSGNDTSGLENKTVVVTTI
notes: range 272-421; also called GST-GluR2NT2; GluR2NT2; not shown: glutathione S-transferase (GST) encoded by vector pGEX-4T3
B7: GST-GluR2 NTc (L422-E545) (other, UniProt P19491 422-545, looked up)
chain: LESPYVMMKKNHEMLEGNERYEGYCVDLAAEIAKHCGFKYKLTIVGDGKYGARDADTKIWNGMVGELVYGKADIAIAPLTITLVREEVIDFSKPFMSLGISIMIKKPQKSKPGVFSFLDPLAYE
notes: range 422-545; also called GST-GluR2NT3; GluR2NT3; not shown: glutathione S-transferase (GST) encoded by vector pGEX-4T3

Columns and labels:
GST-GluR1NT (A19-E538) = molecular target: T1, GST-GluR1NT (A19-E538) (UniProt P19490 19-538); assay: GST pull-down from rat hippocampal extracts, Coomassie-stained SDS-PAGE
T1 construct: range 19-538; Control fusion protein; not shown: glutathione S-transferase (GST) encoded by vector pGEX-4T3

[1] = molecular target: B7; assay: repeated GST pull-down from rat hippocampal tissue
[2] = molecular target: B6; assay: repeated GST pull-down from rat hippocampal tissue
GST alone = molecular target: T2, GST alone (UniProt P08515 1-218 = GST); assay: GST pull-down, Western blot for GAPDH
T2 construct: Negative control; also called GST peptide
T2 sequence (P08515 whole entry): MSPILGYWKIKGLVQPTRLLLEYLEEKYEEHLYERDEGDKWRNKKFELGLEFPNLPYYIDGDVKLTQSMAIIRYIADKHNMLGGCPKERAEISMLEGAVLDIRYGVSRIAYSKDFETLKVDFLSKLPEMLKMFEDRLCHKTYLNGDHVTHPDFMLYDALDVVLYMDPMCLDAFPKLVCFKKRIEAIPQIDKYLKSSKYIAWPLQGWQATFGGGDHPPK

[3] = molecular target: T3, [35S]-GAPDH probe (in vitro translated, [35S]-methionine labelled GAPDH) (Homo sapiens, UniProt P04406 1-335, limits assumed, [35S]-methionine labelled); assay: blot overlay with in vitro translated probe
T3 sequence (P04406 whole entry): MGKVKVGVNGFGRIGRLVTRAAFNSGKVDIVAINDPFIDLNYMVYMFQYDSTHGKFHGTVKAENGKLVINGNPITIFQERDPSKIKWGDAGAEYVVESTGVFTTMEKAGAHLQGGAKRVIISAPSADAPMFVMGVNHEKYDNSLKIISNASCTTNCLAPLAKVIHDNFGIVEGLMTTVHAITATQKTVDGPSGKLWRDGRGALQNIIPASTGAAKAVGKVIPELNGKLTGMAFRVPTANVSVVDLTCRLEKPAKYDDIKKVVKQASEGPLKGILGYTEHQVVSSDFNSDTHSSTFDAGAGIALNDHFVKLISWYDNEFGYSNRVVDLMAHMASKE

[4] = molecular target: B1; assay: GST pull-down, Western blot for GAPDH
[5] = molecular target: B1; assay: repeated GST pull-down from rat hippocampal tissue
[6] = molecular target: T3, [35S]-GAPDH probe (in vitro translated, …); assay: repeated in vitro binding assay with in vitro translated probe
GST-GluR2NT (V22-E545) = molecular target: T4, GST-GluR2NT (V22-E545) (Rattus norvegicus (Rat), UniProt P19491 22-545); assay: GST pull-down, Western blot for p53 (FIG. 24A)
T4 construct: Bacterial GST fusion on glutathione-Sepharose; not shown: glutathione S-transferase (GST) encoded by vector pGEX-4T3

Question: Does B1 bind (GST-GluR1NT (A19-E538))?
Answer: Result: no binding

Question: Does B1 bind [1]?
Answer: Result: no binding

Question: Does B1 bind [2]?
Answer: Result: no binding

Question: Does B1 bind (GST alone)?
Answer: Result: no binding

B2: GST-GluR2 NTa2 (A72-T121) (other, UniProt P19491 72-121, looked up)
chain: AVTNAFCSQFSRGVYAIFGFYDKKSVNTITSFCGTLHVSFITPSFPTDGT
notes: range 72-121; also called GluR2NT1-2; not shown: glutathione S-transferase (GST) encoded by vector pGEX-4T3
Question: Does B2 bind [3]?
Answer: Result: no binding

Question: Does B2 bind [4]?
Answer: Result: no binding

B3: GST-GluR2 NTa4 (K172-D221) (other, UniProt P19491 172-221, looked up)
chain: KWQVTAINVGNINNDKKDETYRSLFQDLELKKERRVILDCERDKVNDIVD
notes: range 172-221; also called GluR2NT1-4; not shown: glutathione S-transferase (GST) encoded by vector pGEX-4T3
Question: Does B3 bind [3]?
Answer: Result: no binding

Question: Does B3 bind [4]?
Answer: Result: no binding

B4: GST-GluR2 NTa5 (Q222-S271) (other, UniProt P19491 222-271, looked up)
chain: QVITIGKHVKGYHYIIANLGFTDGDLLKIQFGGANVSGFQIVDYDDSLVS
notes: range 222-271; also called GluR2NT1-5; not shown: glutathione S-transferase (GST) encoded by vector pGEX-4T3
Question: What does the source list for B4?
Answer: binding result [3]: no binding; binding result [4]: no binding

B5: GST-GluR2 NTa1 (V22-F71) (other, UniProt P19491 22-71, looked up)
chain: VSSNSIQIGGLFPRGADQEYSAFRVGMVQFSTSEFRLTPHIDNLEVANSF
notes: range 22-71; also called GluR2NT1-1; not shown: glutathione S-transferase (GST) encoded by vector pGEX-4T3
Question: Does B5 bind [5]?
Answer: Result: no binding

Question: Does B5 bind [3]?
Answer: Result: no binding

Question: Does B6 bind [6]?
Answer: Result: no binding

Question: Does B7 bind [6]?
Answer: Result: no binding

B8: p53, endogenous protein of rat hippocampus (other, UniProt P10361 1-391, looked up)
chain: MEDSQSDMSIELPLSQETFSCLWKLLPPDDILPTTATGSPNSMEDLFLPQDVAELLEGPEEALQVSAPAAQEPGTEAPAPVAPASATPWPLSSSVPSQKTYQGNYGFHLGFLQSGTAKSVMCTYSISLNKLFCQLAKTCPVQLWVTSTPPPGTRVRAMAIYKKSQHMTEVVRRCPHHERCSDGDGLAPPQHLIRVEGNPYAEYLDDRQTFRHSVVVPYEPPEVGSDYTTIHYKYMCNSSCMGGMNRRPILTIITLEDSSGNLLGRDSFEVRVCACPGRDRRTEEENFRKKEEHCPELPPGSAKRALPTSTSSSPQQKKKPLDGEYFTLKIRGRERFEMFRELNEALELKDARAAEESGDSRAHSSYPKTKKGQSTSRHKKPMIKKVGPDSD
Question: Does B8 bind (GST-GluR2NT (V22-E545))?
Answer: Result: no binding
